According to patent US20080292632A1 (US Dept. of Health and Human Services, published 2008):

Key:
[1] = molecular target: T1, IRTA2 extracellular domain-Fc fusion protein (human, UniProt Q96RD9 16-851); assay: equilibrium ELISA (Friguet)
T1 construct: extracellular domain; also called IRTA2-Fc; IRTA2-HFc; not shown: human IgG1 hinge and Fc
T1 sequence (looked up): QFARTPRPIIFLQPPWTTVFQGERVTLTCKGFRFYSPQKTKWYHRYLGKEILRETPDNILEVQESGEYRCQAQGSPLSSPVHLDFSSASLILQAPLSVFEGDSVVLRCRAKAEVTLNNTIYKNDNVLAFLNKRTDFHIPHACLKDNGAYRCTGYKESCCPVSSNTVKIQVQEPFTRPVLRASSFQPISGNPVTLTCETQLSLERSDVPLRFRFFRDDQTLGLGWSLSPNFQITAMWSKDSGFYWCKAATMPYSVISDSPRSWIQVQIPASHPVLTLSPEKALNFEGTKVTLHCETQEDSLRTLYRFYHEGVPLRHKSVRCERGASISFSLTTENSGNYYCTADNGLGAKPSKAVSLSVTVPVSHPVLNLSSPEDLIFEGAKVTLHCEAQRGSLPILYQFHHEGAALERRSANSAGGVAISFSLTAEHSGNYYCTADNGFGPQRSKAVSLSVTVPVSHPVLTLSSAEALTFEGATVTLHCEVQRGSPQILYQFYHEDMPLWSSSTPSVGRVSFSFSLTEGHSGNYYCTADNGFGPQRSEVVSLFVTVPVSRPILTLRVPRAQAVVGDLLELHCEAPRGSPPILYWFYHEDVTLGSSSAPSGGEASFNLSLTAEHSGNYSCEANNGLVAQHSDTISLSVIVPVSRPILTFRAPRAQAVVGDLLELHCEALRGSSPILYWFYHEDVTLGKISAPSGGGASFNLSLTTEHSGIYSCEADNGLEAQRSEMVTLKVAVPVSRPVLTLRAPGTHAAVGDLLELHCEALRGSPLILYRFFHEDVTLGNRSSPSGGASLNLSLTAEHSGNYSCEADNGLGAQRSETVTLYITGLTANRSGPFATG
Protocol: ELISA. In a typical indirect ELISA for the screening of hybridomas, microtiter plates (MaxiSorp; Nalge Nunc, Rochester, N.Y.) were coated with 100 ng/50 μl/well of goat anti-human IgG in phosphate buffered saline (PBS) for 2 hours at room temperature. Next, 50 ng/100 μl/well of IRTA2-Fc in blocking buffer (25% DMEM, 5% FBS, 25 mM HEPES, 0.5% bovine serum albumin, 0.1% sodium azide in PBS) was added to each well and incubated for 2 hours at room temperature. After washing with PBS containing 0.05% Tween 20, 50 μl of the hybridoma supernatants were added and incubated for 2 hours at room temperature. After washing, the bound MAbs were detected by a 2-hour incubation with horseradish peroxidase (HRP)-labeled goat anti-mouse IgG (Jackson ImmunoResearch, Grove, Pa.) followed by tetramethylbenzidine (TMB) substrate kit (Pierce, Rockford, Ill.). In some experiments, other IRTA-Fc fusion proteins were used instead of IRTA2-Fc.
Affinity Determination. Affinities (dissociation constant, Kd) of the anti-IRTA2 MAbs to IRTA2-Fc were determined by ELISA as previously described (Friguet et al., J Immunol Methods 77:305-19, 1985). Briefly, each MAb was incubated with various concentrations of IRTA2-Fc at room temperature for 20 hours to reach equilibrium; then the amount of MAb that remains unbound at equilibrium was measured by the indirect ELISA as described above.

CD30-Fc fusion protein = molecular target: T2, CD30-Fc fusion protein (human, UniProt P28908 19-385); assay: ELISA
T2 construct: extracellular domain; Negative control antigen; not shown: human IgG1 hinge and Fc of pRB-2k1-CD30
T2 sequence (looked up): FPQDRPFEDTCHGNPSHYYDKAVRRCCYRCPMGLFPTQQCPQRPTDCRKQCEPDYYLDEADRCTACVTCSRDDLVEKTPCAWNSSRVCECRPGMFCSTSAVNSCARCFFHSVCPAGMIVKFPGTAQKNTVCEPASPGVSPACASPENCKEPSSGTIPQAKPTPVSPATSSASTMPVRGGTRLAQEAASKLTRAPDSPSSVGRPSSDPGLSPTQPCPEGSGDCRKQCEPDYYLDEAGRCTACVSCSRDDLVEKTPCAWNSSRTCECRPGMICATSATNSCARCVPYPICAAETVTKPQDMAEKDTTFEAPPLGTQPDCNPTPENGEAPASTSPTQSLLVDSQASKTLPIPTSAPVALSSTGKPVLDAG

[2] = molecular target: T3, CD30 on transfected 293T cells (human, UniProt P28908 19-595); assay: cell-ELISA, formalin-fixed cells
T3 construct: whole, on cells
T3 sequence (looked up): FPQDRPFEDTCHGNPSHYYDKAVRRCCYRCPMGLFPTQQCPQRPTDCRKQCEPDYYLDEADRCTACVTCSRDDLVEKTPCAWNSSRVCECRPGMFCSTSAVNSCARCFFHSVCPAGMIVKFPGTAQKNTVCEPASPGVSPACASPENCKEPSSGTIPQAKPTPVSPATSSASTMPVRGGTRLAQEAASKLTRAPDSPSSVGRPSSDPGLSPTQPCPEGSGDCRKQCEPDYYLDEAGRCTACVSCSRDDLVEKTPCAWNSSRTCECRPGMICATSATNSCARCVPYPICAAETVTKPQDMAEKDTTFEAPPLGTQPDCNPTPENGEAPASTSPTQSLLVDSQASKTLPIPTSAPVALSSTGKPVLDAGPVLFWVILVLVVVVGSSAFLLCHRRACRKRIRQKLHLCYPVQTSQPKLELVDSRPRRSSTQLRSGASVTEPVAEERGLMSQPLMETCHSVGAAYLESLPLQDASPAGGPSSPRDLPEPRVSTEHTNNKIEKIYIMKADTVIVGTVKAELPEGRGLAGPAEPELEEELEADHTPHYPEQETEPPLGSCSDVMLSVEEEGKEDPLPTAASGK
Protocol: Cell-ELISA. […] After overnight culture, the cells were fixed with 3.7% formalin in the culture medium at room temperature overnight. Incubation with a dilution of MAbs, secondary antibody and substrate was performed as described in the ELISA protocol except that 1% FBS in PBS was used for washing.

Kd [1]: 1.2 nM
binding result (CD30-Fc fusion protein): no binding
binding result [2]: no binding (tested: ’0.2)
B1: F25 (antibody, IgG2a, V domains shown)
VH: EVQLQQSGPELVKPGTSVKMSCKASGYSFTGYFMNWMMQNHGKSLEWIGRINLYNGDTFYNQKFKDKATLTVDKSSNTVHMEFRSLASEDSAVYYCASSLYYFDYWGQGTTFTVSS
VL: DIVMTQSHKFMSTSVGDRVNITCKASQDVGTNVAWYQQKPGQSPKLLIYWASTRQTGVPDRFTGSGSGTDFTLTISNVQSEDLSDYFCQQYSSYPLTFGAGTKLELKR
notes: mouse hybridoma MAb, IgG2a, kappa; also called MAb F25; biotin-MAb F25
